Experimental data: publication PMC11926106
Where “and” joins values, the source holds several entries; their conditions need not be identical. Equal values may be shown once.

What was measured:
glycinin (soybean) [1] = assay: mass photometry; label-free glycinin 0.48 µg/mL adsorbed on a supported lipid bilayer of DOPC, 365 mM NaCl, 5 min incubation; oligomers counted among the membrane-adsorbed particles
glycinin (soybean) [2] = assay: mass photometry; label-free glycinin 0.48 µg/mL adsorbed on a supported lipid bilayer of DOPC, 20 mM NaCl, 5 min incubation; oligomers counted among the membrane-adsorbed particles

glycinin, sequence (P04776 20-495): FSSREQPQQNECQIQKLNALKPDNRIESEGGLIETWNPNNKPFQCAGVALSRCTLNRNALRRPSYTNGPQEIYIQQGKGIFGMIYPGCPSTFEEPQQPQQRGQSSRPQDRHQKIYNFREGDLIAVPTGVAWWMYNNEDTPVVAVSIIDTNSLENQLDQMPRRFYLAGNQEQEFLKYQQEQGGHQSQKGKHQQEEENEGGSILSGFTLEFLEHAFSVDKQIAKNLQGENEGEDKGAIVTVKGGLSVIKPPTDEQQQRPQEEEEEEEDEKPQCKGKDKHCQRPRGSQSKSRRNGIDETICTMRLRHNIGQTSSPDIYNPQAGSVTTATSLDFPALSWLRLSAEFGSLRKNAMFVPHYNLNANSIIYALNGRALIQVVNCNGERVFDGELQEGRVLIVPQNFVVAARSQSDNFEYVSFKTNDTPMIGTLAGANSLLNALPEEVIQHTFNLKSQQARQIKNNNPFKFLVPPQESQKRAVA

glycinin (natural protein)
stoichiometry N (glycinin (soybean) [1]): 9
stoichiometry N (glycinin (soybean) [2]): 3 and 6
